How the values were obtained:
[1] = Dynamic light scattering (DLS) of DSG2 fusion polypeptides; format: physicochemical; conditions: for PDI: polymer distribution index
Text: 6 candidates were compared to the reference sample.

[2] = Melting temperature Tm of DSG2 fusion polypeptides; format: physicochemical
Text: As the temperature increased, the aggregates began to move, unfold and spread apart.

[3] = tested on: anti-DSG2 antibody; assay: Anti-DSG2 antibody Meso Scale Discovery (MSD) blocking assay, anti-DSG2 antibody controls; format: binding; conditions: for ability to bind to and block anti-DSG2 antibody: MSD assay; for % inhibition: fraction C
Experimental: (§1) The DSG2 fusion polypeptides were tested for the ability to block anti-DSG2 antibody by an anti-DSG2 antibody Meso Scale Discovery (MSD) assay. […] The DSG2 fusion polypeptides were subjected to size exclusion chromatography and different elution fractions were examined. […] As shown in Table 9 and FIG. 4B, FIG. 4C, and FIG. 4D, enriching for fraction C improved the ability of the DSG2 fusion polypeptides to block ARVC patient serum.

[4] = biological target: Anti-DSG2 antibody; assay: electrochemical immunoassay; blocking of anti-DSG2 antibodies (500 ng/mL) binding to DSG2 extracellular domain; fusion polypeptide 5 mg/mL as printed
[5] = biological target: Anti-DSG2 antibody; assay: anti-DSG2 antibody MSD assay; fraction C; inhibition of the signal of anti-DSG2 antibody at 200 ng/mL (control)
[6] = biological target: Anti-DSG2 antibody; assay: anti-DSG2 antibody MSD assay; fraction C; inhibition of the signal of anti-DSG2 antibody at 1000 ng/mL (control)
[7] = tested on: ARVC serum (serum obtained from ARVC patients); assay: Anti-DSG2 antibody Meso Scale Discovery (MSD) blocking assay, ARVC serum; format: binding, human; conditions: for % inhibition: fraction C; for effect of enriching for fraction C on ability to block ARVC patient serum: size exclusion fraction C vs whole preparation, FIG. 4B-4D
Experimental: as §1

[8] = sample: Anti-DSG2 antibody (200 ng/mL) control
[9] = sample: Anti-DSG2 antibody (1000 ng/mL) control

DSG2FP#5: amino acids 104-330 of IgG1 (L234A, L235A, P329G; SEQ ID NO: 31); DSG2 extracellular domain (50-609 of SEQ ID NO: 1)
Peak 1 mass % [1]: ~99%
Peak 1 mode diameter [1]: 76.72 nm
PDI [1]: 0.31
Tm1 [2]: 65.0 °C
ability to bind to and block anti-DSG2 antibody [3]: able to bind to and block anti-DSG2 antibodies

DSG2-(IgG4)Fc (Fc fusion)
% inhibition [4]: > 80%

DSG2-GGGGS-(IgG4)Fc (Fc fusion)
% inhibition [4]: > 80%

DSG2FP#7: DSG2 extracellular domain (50-609 of SEQ ID NO: 1); GGGGS peptide linker; IgG4 Fc (S228P, L235E, P329G) (SEQ ID NO: 32)
Peak 1 mass % [1]: ~97%
Peak 1 mode diameter [1]: 86.23 nm
PDI [1]: 0.30
Tm1 [2]: 53.4 °C
Tm2 [2]: 60.0 °C
ability to bind to and block anti-DSG2 antibody [3]: able to bind to and block anti-DSG2 antibodies

DSG2-GGGGS-(IgG1)Fc (Fc fusion)
% inhibition [5]: 61.2%
% inhibition [6]: 85.5%

DSG2-EAAAK-(IgG1)Fc (Fc fusion)
% inhibition [5]: 61.2%
% inhibition [6]: 85.5%

DSG2FP#6: DSG2 extracellular domain (50-609 of SEQ ID NO: 1); amino acids 99-327 of IgG4 (S228P, L235E, P329G) (SEQ ID NO: 32)
Peak 1 mass % [1]: ~99%
Peak 1 mode diameter [1]: 98.03 nm
PDI [1]: 0.32
Tm1 [2]: 51.1 °C
Tm2 [2]: 60.0 °C
ability to bind to and block anti-DSG2 antibody [3]: able to bind to and block anti-DSG2 antibodies

DSG2-(IgG1)Fc (Fc fusion)
% inhibition [5]: 54.5%
% inhibition [6]: 81.6%

B1: DSG2FP#4: DSG2 extracellular domain (50-609 of SEQ ID NO: 1); linker EAAAK; amino acids 104-330 of IgG1 (L234A, L235A, P329G) (protein)
chain: AWITAPVALREGEDLSKKNPIAKIHSDLAEERGLKITYKYTGKGITEPPFGIFVFNKDTGELNVTSILDREETPFFLLTGYALDARGNNVEKPLELRIKVLDINDNEPVFTQDVFVGSVEELSAAHTLVMKINATDADEPNTLNSKISYRIVSLEPAYPPVFYLNKDTGEIYTTSVTLDREEHSSYTLTVEARDGNGEVTDKPVKQAQVQIRILDVNDNIPVVENKVLEGMVEENQVNVEVTRIKVFDADEIGSDNWLANFTFASGNEGGYFHIETDAQTNEGIVTLIKEVDYEEMKNLDFSVIVANKAAFHKSIRSKYKPTPIPIKVKVKNVKEGIHFKSSVISIYVSESMDRSSKGQIIGNFQAFDEDTGLPAHARYVKLEDRDNWISVDSVTSEIKLAKLPDFESRYVQNGTYTVKIVAISEDYPRKTITGTVLINVEDINDNCPTLIEPVQTICHDAEYVNVTAEDLDGHPNSGPFSFSVIDKPPGMAEKWKIARQESTSVLLQQSEKKLGRSEIQFLISDNQGFSCPEKQVLTLTVCECLHGSGCREAQHDSYVGEAAAKDKTHTCPPCPAPEAAGGPSVFLFPPKPKDTLMISRTPEVTCVVVDVSHEDPEVKFNWYVDGVEVHNAKTKPREEQYNSTYRVVSVLTVLHQDWLNGKEYKCKVSNKALGAPIEKTISKAKGQPREPQVYTLPPSRDELTKNQVSLTCLVKGFYPSDIAVEWESNGQPENNYKTTPPVLDSDGSFFLYSKLTVDKSRWQQGNVFSCSVMHEALHNHYTQKSLSLSPGK
Peak 1 mass % [1]: ~96%
Peak 1 mode diameter [1]: 44.87 nm
PDI [1]: 0.32
Tm1 [2]: 50.7 °C
Tm2 [2]: 63.1 °C
Tm3 [2]: 81.5 °C
ability to bind to and block anti-DSG2 antibody [3]: able to bind to and block anti-DSG2 antibodies
% inhibition [3, 8]: 61.2%
% inhibition [3, 9]: 85.5%
% inhibition ([3]; sample: no antibody control): 0.7%
% inhibition ([7]; sample: ARVC serum 1): 6.0%
% inhibition ([7]; sample: ARVC serum 2): 9.2%
% inhibition ([7]; sample: ARVC serum 3): −8.0%
% inhibition ([7]; sample: ARVC serum 4): 0.8%
% inhibition ([7]; sample: ARVC serum 5): 2.0%

B2: DSG2FP#3: DSG2 extracellular domain (50-609 of SEQ ID NO: 1); linker GGGGS; amino acids 104-330 of IgG1 (L234A, L235A, P329G) (protein)
chain: AWITAPVALREGEDLSKKNPIAKIHSDLAEERGLKITYKYTGKGITEPPFGIFVFNKDTGELNVTSILDREETPFFLLTGYALDARGNNVEKPLELRIKVLDINDNEPVFTQDVFVGSVEELSAAHTLVMKINATDADEPNTLNSKISYRIVSLEPAYPPVFYLNKDTGEIYTTSVTLDREEHSSYTLTVEARDGNGEVTDKPVKQAQVQIRILDVNDNIPVVENKVLEGMVEENQVNVEVTRIKVFDADEIGSDNWLANFTFASGNEGGYFHIETDAQTNEGIVTLIKEVDYEEMKNLDFSVIVANKAAFHKSIRSKYKPTPIPIKVKVKNVKEGIHFKSSVISIYVSESMDRSSKGQIIGNFQAFDEDTGLPAHARYVKLEDRDNWISVDSVTSEIKLAKLPDFESRYVQNGTYTVKIVAISEDYPRKTITGTVLINVEDINDNCPTLIEPVQTICHDAEYVNVTAEDLDGHPNSGPFSFSVIDKPPGMAEKWKIARQESTSVLLQQSEKKLGRSEIQFLISDNQGFSCPEKQVLTLTVCECLHGSGCREAQHDSYVGGGGGGSDKTHTCPPCPAPEAAGGPSVFLFPPKPKDTLMISRTPEVTCVVVDVSHEDPEVKFNWYVDGVEVHNAKTKPREEQYNSTYRVVSVLTVLHQDWLNGKEYKCKVSNKALGAPIEKTISKAKGQPREPQVYTLPPSRDELTKNQVSLTCLVKGFYPSDIAVEWESNGQPENNYKTTPPVLDSDGSFFLYSKLTVDKSRWQQGNVFSCSVMHEALHNHYTQKSLSLSPGK
Peak 1 mass % [1]: ~91%
Peak 1 mode diameter [1]: 43.23 nm
PDI [1]: 0.30
Tm1 [2]: 51.3 °C
Tm2 [2]: 62.8 °C
Tm3 [2]: 82.1 °C
ability to bind to and block anti-DSG2 antibody [3]: able to bind to and block anti-DSG2 antibodies
% inhibition [3, 8]: 61.2%
% inhibition [3, 9]: 85.5%
% inhibition ([3]; sample: no antibody control): 0.7%
% inhibition ([7]; sample: ARVC serum 1): 9.2%
% inhibition ([7]; sample: ARVC serum 2): 27.6%
% inhibition ([7]; sample: ARVC serum 3): 15.5%
% inhibition ([7]; sample: ARVC serum 4): −5.6%
% inhibition ([7]; sample: ARVC serum 5): 20.6%
effect of enriching for fraction C on ability to block ARVC patient serum [7]: more pronounced

B3: DSG2FP#2: DSG2 extracellular domain (amino acids 50-609 of SEQ ID NO: 1); amino acids 104-330 of IgG1 (L234A, L235A, P329G) (SEQ ID NO: 31) (protein)
chain: AWITAPVALREGEDLSKKNPIAKIHSDLAEERGLKITYKYTGKGITEPPFGIFVFNKDTGELNVTSILDREETPFFLLTGYALDARGNNVEKPLELRIKVLDINDNEPVFTQDVFVGSVEELSAAHTLVMKINATDADEPNTLNSKISYRIVSLEPAYPPVFYLNKDTGEIYTTSVTLDREEHSSYTLTVEARDGNGEVTDKPVKQAQVQIRILDVNDNIPVVENKVLEGMVEENQVNVEVTRIKVFDADEIGSDNWLANFTFASGNEGGYFHIETDAQTNEGIVTLIKEVDYEEMKNLDFSVIVANKAAFHKSIRSKYKPTPIPIKVKVKNVKEGIHFKSSVISIYVSESMDRSSKGQIIGNFQAFDEDTGLPAHARYVKLEDRDNWISVDSVTSEIKLAKLPDFESRYVQNGTYTVKIVAISEDYPRKTITGTVLINVEDINDNCPTLIEPVQTICHDAEYVNVTAEDLDGHPNSGPFSFSVIDKPPGMAEKWKIARQESTSVLLQQSEKKLGRSEIQFLISDNQGFSCPEKQVLTLTVCECLHGSGCREAQHDSYVGDKTHTCPPCPAPEAAGGPSVFLFPPKPKDTLMISRTPEVTCVVVDVSHEDPEVKFNWYVDGVEVHNAKTKPREEQYNSTYRVVSVLTVLHQDWLNGKEYKCKVSNKALGAPIEKTISKAKGQPREPQVYTLPPSRDELTKNQVSLTCLVKGFYPSDIAVEWESNGQPENNYKTTPPVLDSDGSFFLYSKLTVDKSRWQQGNVFSCSVMHEALHNHYTQKSLSLSPGK
Peak 1 mass % [1]: ~96%
Peak 1 mode diameter [1]: 40.04 nm
PDI [1]: 0.32
Tm1 [2]: 52.0 °C
Tm2 [2]: 61.9 °C
Tm3 [2]: 81.9 °C
ability to bind to and block anti-DSG2 antibody [3]: able to bind to and block anti-DSG2 antibodies
% inhibition [3, 8]: 54.5%
% inhibition [3, 9]: 81.6%
% inhibition ([3]; sample: no antibody control): −19.1%
% inhibition ([7]; sample: ARVC serum 1): 3.0%
% inhibition ([7]; sample: ARVC serum 2): 33.5%
% inhibition ([7]; sample: ARVC serum 3): 26.0%
% inhibition ([7]; sample: ARVC serum 4): 51.1%
% inhibition ([7]; sample: ARVC serum 5): 41.8%
effect of enriching for fraction C on ability to block ARVC patient serum [7]: more pronounced
